This assay has as its target scavenger receptor CD36 (human (endogenous in THP-1)) (UniProt P16671). Put plainly: flow cytometry on cells; THP-1-derived M1 macrophages pre-incubated with 50 μM HSAUT, HSA_(HOCl) or buffer for 15 min at 0 °C (surface binding, no internalization), then stained with a PE-conjugated anti-CD36 blocking antibody; binding of HSA read indirectly as loss of antibody staining. Background: In flow cytometry, cells or beads pass a laser one at a time.
Chain of UniProt P16671 (P16671 whole entry): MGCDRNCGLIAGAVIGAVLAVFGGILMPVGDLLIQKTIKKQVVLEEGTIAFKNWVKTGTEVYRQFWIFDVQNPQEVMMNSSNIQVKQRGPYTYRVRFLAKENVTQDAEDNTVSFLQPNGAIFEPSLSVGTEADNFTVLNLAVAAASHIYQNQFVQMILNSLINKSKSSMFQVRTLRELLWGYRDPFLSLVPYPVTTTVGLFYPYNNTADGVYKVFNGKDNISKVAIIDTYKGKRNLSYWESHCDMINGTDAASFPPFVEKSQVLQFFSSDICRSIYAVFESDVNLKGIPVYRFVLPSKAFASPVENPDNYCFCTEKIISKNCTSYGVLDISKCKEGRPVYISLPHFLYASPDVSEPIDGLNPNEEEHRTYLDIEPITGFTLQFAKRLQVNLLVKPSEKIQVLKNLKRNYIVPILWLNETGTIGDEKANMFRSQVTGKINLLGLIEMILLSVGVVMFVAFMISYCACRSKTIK

“HOCl-modified human serum albumin (from UniProt P02768 25-609) (natural protein)” had a reduction of the binding of anti-CD36 antibody to the cells of 30%.
